From patent US8357523B2, “Beta-glucosidase variant enzymes and related polynucleotides” (Codexis, Inc., priority 2009, dated 2013)
Where a chain is given by its changes, count along the chain named.

Assay: High throughput cellobiose assay: fold improvement in cellobiase activity of CelA variants over a control enzyme (Tables 2A-2D, 3, 5, 6, 7)
Format: biochemical
Conditions: 3.3 g/l cellobiose, 55° C. and pH 5.3 (incubation overnight)

B1: 278 (protein)
chain: STAIAQEGAAPAAMLHPEKWPRPATQRLIDPAVEKRVDALLKQLSVEEKVGQVIQGDIGTITPEDLRKYPLGSILAGGDSGPNGDDRAPPKEWLDLADAFYRVSLEKRPGHTPIPVLFGIDAVHGHGNIGSATIFPHNIALGMTRDPELLRRIGEVTAEEMAATGIDWTFAPALSVVRDDRWGRTYEGFSEDPEIVASYSPAIVEGVQGKYGSKDFMAPGRIVASAKHFLADGGTDQGRDQGDARISEDELIRIHNAGYPPAIDAGVLTVMASFSSWQGIKHHGHKQLLTDVLKGQMGFNGFIVGDWNAHDQVPGCTKFNCPTSLIAGLDMYMAADSWKQLYENTLAQVKDGTIPMARLDDAVRRILRVKVLAGLFEKPAPKDRPGLPGLETLGSPEHRAVGREAVRKSLVLLKNDKGTLPLSPKARVLVAGDGADNIGKQSGGWTISWQGTGNRNDEFPGATSILGGIRDAVADAGGSVEFDVAGQYKTKPDVAIVVFGEEPYAEFRGDVETLEYQPDQKQDLTLLKKLKDQGIPVVAVFLSGRPMWVNPELNASDAFVAAWLPGTEGGGVADVLFTDKAGKVQHDFAGKLSYSWPRTAAQTTVNRGDADYNPLFAYGYGLTYKDRSKVGTLPEESGVPAEARQN
Which “Fold improvement over Control Variant No. 94 from Table 2B” value does the source give for B1 here?
Its value is “++++ (++++ = 1.1 to 1.5 fold improvement over Control No. 3, Variant No. 94)”.

B2: 213 (protein)
chain: STAIAQEGAGPAAILHPEKWPRPATQRLIDPAVEKRVDALLKQLSVEEKVGQVIQGDIGTITPEDLRKYPLGSILAGGDSGPNGDDRAPPKEWLDLADAFYRVSLEKRPGHTPIPVLFGIDAVHGHGNIGSATIFPHNIALGMTRDPELLRRIGEVTAEEMAATGIDWTFAPALSVVRDDRWGRTYEGFSEDPEIVASYSAAIVEGVQGKYGSKDFMAPGRIVASAKHFLADGGTDQGRDQGDARISEDELIRIHNAGYPPAIDAGVLTVMASFSSWQGIKHHGHKQLLTDVLKGQMGFNGFIVGDWNAHDQVPGCTKFNCPTSLIAGLDMYMAADSWKQLYENTLAQVKDGTIPMARLDDAVRRILRVKVLAGLFEKPAPKDRPGLPGLETLGSPEHRAVGREAVRKSLVLLKNDKGTLPLSPKARVLVAGDGADNIGKQSGGWTISWQGTGNRNDEFPGATSILGGIRDAVADAGGSVEFDVAGQYKTKPDVAIVVFGEEPYAEFQGDVETLEYQPDQKQDLALLKKLKDQGIPVVAVFLSGRPMWVNPELNASDAFVAAWLPGTEGGGVADVLFTDKAGKVQHDFAGKLSYSWPRTAAQTTVNRGDADYNPLFAYGYGLTYKDKSKVGTLPEESGVP
For B2, which “Fold improvement over Control Variant No. 94 from Table 2B” value is on record?
Its value is “++++ (++++ = 1.1 to 1.5 fold improvement over Control No. 3, Variant No. 94)”.

B3: 217 (protein)
chain: B2 chain with G10S
With B3 as the molecule, how does the “Fold improvement over Control Variant No. 94 from Table 2B” value read?
The value was “++++ (++++ = 1.1 to 1.5 fold improvement over Control No. 3, Variant No. 94)”.

B4: 283 (protein)
chain: B2 chain with G10A, V371M
For B4, which “Fold improvement over Control Variant No. 94 from Table 2B” value is on record?
The value was “++++ (++++ = 1.1 to 1.5 fold improvement over Control No. 3, Variant No. 94)”.

B5: 215 (protein)
chain: B2 chain with G10P
For B5, which “Fold improvement over Control Variant No. 94 from Table 2B” value is on record?
Its value is “++++ (++++ = 1.1 to 1.5 fold improvement over Control No. 3, Variant No. 94)”.

B6: 216 (protein)
chain: B2 chain with G10A, I14T
For B6, which “Fold improvement over Control Variant No. 94 from Table 2B” value is on record?
The value was “++++ (++++ = 1.1 to 1.5 fold improvement over Control No. 3, Variant No. 94)”.

B7: 214 (protein)
chain: B2 chain with A3L, G10A
For B7, which “Fold improvement over Control Variant No. 94 from Table 2B” value is on record?
The value was “++++ (++++ = 1.1 to 1.5 fold improvement over Control No. 3, Variant No. 94)”.

B8: 285 (protein)
chain: B2 chain with G10A, G386E
With B8 as the molecule, how does the “Fold improvement over Control Variant No. 94 from Table 2B” value read?
Its value is “++++ (++++ = 1.1 to 1.5 fold improvement over Control No. 3, Variant No. 94)”.

B9: 282 (protein)
chain: STAIAQEGAAPAAILHPEKWPRPATQRLIDPAVEKRVDALLKQLSVEEKVGQVIQGDIGTITPEDLRKYPLGSILAGGDSGPNGDDRAPPKEWLDLADAFYRVSLEKRPGHTPIPVLFGIDAVHGHGNIGSATIFPHNIALGMTRDPELLRRIGEVTAEEMAATGIDWTFAPALSVVRDDRWGRTYEGFSEDPEIVASYSAAIVEGVQGKYGSKDFMAPGRIVASAKHFLADGGTDQGRDQGDARCSEDELIRIHNAGYPPAIDAGVLTVMASFSSWQGIKHHGHKQLLTDVLKGQMGFNGFIVGDWNAHDQVPGCTKFNCPTSLIAGLDMYMAADSWKQLYENTLAQVKDGTIPMARLDDAVRRILRVKVLAGLFEKPAPKDRPGLPGLETLGSPEHRAVGREAVRKSLVLLKNDKGTLPLSPKARVLVAGDGADNIGKQSGGWTISWQGTGNRNDEFPGATSILGGIRDAVADAGGSVEFDVAGQYKTKPDVAIVVFGEEPYAEFQGDVETLEYQPDQKQDLALLKKLKDQGIPVVAVFLSGRPMWVNPELNASDAFVAAWLPGTEGGGVADVLFTDKAGKVQHDFAGKLSYSWPRTAAQTTVNRGDADYNPLFAYGYGLTYKDKSKVGTLPEESGVPAEARQNAGIYFRAGALRLPGRFL
With B9 as the molecule, how does the “Fold improvement over Control Variant No. 94 from Table 2B” value read?
The value was “++++ (++++ = 1.1 to 1.5 fold improvement over Control No. 3, Variant No. 94)”.

B10: 287 (protein)
chain: B9 chain with C246I, D311G
With B10 as the molecule, how does the “Fold improvement over Control Variant No. 94 from Table 2B” value read?
Its value is “++++ (++++ = 1.1 to 1.5 fold improvement over Control No. 3, Variant No. 94)”.

B11: 284 (protein)
chain: B9 chain with C246I, G298R, D311E
For B11, which “Fold improvement over Control Variant No. 94 from Table 2B” value is on record?
Its value is “++++ (++++ = 1.1 to 1.5 fold improvement over Control No. 3, Variant No. 94)”.
